The record followed here is patent US20080260755A1.

Data set [1] has as its target activated FIX-albumin fusion protein with cleavable linker (1088/797), activated by FXIa (human) (UniProt P00740). The data set is described as follows: cell-based or functional assay.
Data set [2] has as its target activated FIX-albumin fusion protein with non-cleavable linker (980/797), activated by FXIa (human) (UniProt P00740). As to the kind of experiment: cell-based or functional assay.
For data set [3], the system named is FIX-albumin fusion protein with cleavable linker, construct no. 1088/797.
Data set [4] relates to FIX-albumin fusion protein with cleavable linker, construct no. 1089/797.
The subject of data set [5] is FIX-albumin fusion protein with non-cleavable linker (1478/797).
In data set [6] the target is FIX-albumin fusion protein with cleavable linker, construct no. 1088/797. The source holds these as a separate data set.
Data set [7] deals with FIX-albumin fusion protein with cleavable linker, construct no. 1089/797. This is another data set of the same source.

With “Antithrombin III (AT) (from UniProt P01008 33-464)”, in data set [1], the clotting time (naPTT) after 120 min incubation with AT was found to be 540 s; the clotting time (naPTT), control without incubation with AT was 210 s; the factor of increase in clotting time (naPTT) after 120 min incubation with AT worked out at 2.57 x. Besides, in data set [2], the clotting time (naPTT) after 120 min incubation with AT is 411 s and the clotting time (naPTT), control without incubation with AT came out at 196 s.

On to Factor XIa (FXIa), for which the “proteolytic cleavage in vitro, SDS-PAGE” value in data set [3] is “are activated and in parallel the linker is cleaved resulting in release of the albumin moiety”; in data set [4], “are activated and in parallel the linker is cleaved resulting in release of the albumin moiety”; in data set [5], “The fusion protein with non-cleavable linker did not show a corresponding release of the albumin moiety”.

B1: FVIIa (in the presence of tissue factor) (protein)
chain: ANAFLEELRPGSLERECKEEQCSFEEAREIFKDAERTKLFWISYSDGDQCASSPCQNGGSCKDQLQSYICFCLPAFEGRNCETHKDDQLICVNENGGCEQYCSDHTGTKRSCRCHEGYSLLADGVSCTPTVEYPCGKIPILEKRNASKPQGRIVGGKVCPKGECPWQVLLLVNGAQLCGGTLINTIWVVSAAHCFDKIKNWRNLIAVLGEHDLSEHDGDEQSRRVAQVIIPSTYVPGTTNHDIALLRLHQPVVLTDHVVPLCLPERTFSERTLAFVRFSLVSGWGQLLDRGATALELMVLNVPRLMTQDCLQQSRKVGDSPNITEYMFCAGYSDGSKDSCKGDSGGPHATHYRGTWYLTGIVSWGQGCATVGHFGVYTRVSQYIEWLQKLMRSEPRPGVLLRAPFP
Consider B1, for which the “proteolytic cleavage in vitro in the presence of tissue factor (data not shown)” value in data set [6] and in data set [7] was “also showed release of the albumin moiety in parallel to release of the FIX activation peptide” each time.
